Measurements as given in patent US20220062341A1 (KIRIN, published 2022).

B1: modified TCR consisting of β2 and αCR (TCR)
TCR alpha: NIQNPDPAVYQLRDSKSSDKSVCLFTDFDSQTNVSQSKDSDVYITDKTVLDMRSMDFKSNSAVAWSNKSDFACANAFNNSIIPEDTFFPSPESSCDVKLVEKSFETDTNLNFQNLSVIGFRILLLKVAGFNLLMTLRLWSS
TCR beta: ATLVCLATGFYPDHVELSWWVNGKEVHSGVSTDPQPLKEQPALNDSRYCLSSRLRVSATFWQNPRNHFRCQVQFYGLSENDEWTQDRAKPVTQIVSAEAWGRADCGFTSESYQQGVLSATILYEILLGKATLYAVLVSALVLMAMVKRKDSRG
B2: modified TCR consisting of β2 and α2 (TCR)
TCR alpha: SVCLFTDFDSQTNVSQSKDSDVYITDKTVLDMRSMDFKSNSAVAWSNKSDFACANAFNNSIIPEDTFFPSPESSCDVKLVEKSFETDTNLNFQNLSVIGFRILLLKVAGFNLLMTLRLWSS
TCR beta: ATLVCLATGFYPDHVELSWWVNGKEVHSGVSTDPQPLKEQPALNDSRYCLSSRLRVSATFWQNPRNHFRCQVQFYGLSENDEWTQDRAKPVTQIVSAEAWGRADCGFTSESYQQGVLSATILYEILLGKATLYAVLVSALVLMAMVKRKDSRG
B3: modified TCR consisting of β2 and α8 (TCR)
TCR alpha: CANAFNNSIIPEDTFFPSPESSCDVKLVEKSFETDTNLNFQNLSVIGFRILLLKVAGFNLLMTLRLWSS
TCR beta: ATLVCLATGFYPDHVELSWWVNGKEVHSGVSTDPQPLKEQPALNDSRYCLSSRLRVSATFWQNPRNHFRCQVQFYGLSENDEWTQDRAKPVTQIVSAEAWGRADCGFTSESYQQGVLSATILYEILLGKATLYAVLVSALVLMAMVKRKDSRG
B4: modified TCR consisting of β2 and α5 (TCR)
TCR alpha: LDMRSMDFKSNSAVAWSNKSDFACANAFNNSIIPEDTFFPSPESSCDVKLVEKSFETDTNLNFQNLSVIGFRILLLKVAGFNLLMTLRLWSS
TCR beta: ATLVCLATGFYPDHVELSWWVNGKEVHSGVSTDPQPLKEQPALNDSRYCLSSRLRVSATFWQNPRNHFRCQVQFYGLSENDEWTQDRAKPVTQIVSAEAWGRADCGFTSESYQQGVLSATILYEILLGKATLYAVLVSALVLMAMVKRKDSRG
B5: modified TCR consisting of β2 and α6 (TCR)
TCR alpha: KSNSAVAWSNKSDFACANAFNNSIIPEDTFFPSPESSCDVKLVEKSFETDTNLNFQNLSVIGFRILLLKVAGFNLLMTLRLWSS
TCR beta: ATLVCLATGFYPDHVELSWWVNGKEVHSGVSTDPQPLKEQPALNDSRYCLSSRLRVSATFWQNPRNHFRCQVQFYGLSENDEWTQDRAKPVTQIVSAEAWGRADCGFTSESYQQGVLSATILYEILLGKATLYAVLVSALVLMAMVKRKDSRG
B6: modified TCR consisting of β2 and α9 (TCR)
TCR alpha: FNNSIIPEDTFFPSPESSCDVKLVEKSFETDTNLNFQNLSVIGFRILLLKVAGFNLLMTLRLWSS
TCR beta: ATLVCLATGFYPDHVELSWWVNGKEVHSGVSTDPQPLKEQPALNDSRYCLSSRLRVSATFWQNPRNHFRCQVQFYGLSENDEWTQDRAKPVTQIVSAEAWGRADCGFTSESYQQGVLSATILYEILLGKATLYAVLVSALVLMAMVKRKDSRG
B7: modified TCR consisting of β2 and α7 (TCR)
TCR alpha: SNKSDFACANAFNNSIIPEDTFFPSPESSCDVKLVEKSFETDTNLNFQNLSVIGFRILLLKVAGFNLLMTLRLWSS
TCR beta: ATLVCLATGFYPDHVELSWWVNGKEVHSGVSTDPQPLKEQPALNDSRYCLSSRLRVSATFWQNPRNHFRCQVQFYGLSENDEWTQDRAKPVTQIVSAEAWGRADCGFTSESYQQGVLSATILYEILLGKATLYAVLVSALVLMAMVKRKDSRG
B8: modified TCR consisting of β2 and α4 (TCR)
TCR alpha: DVYITDKTVLDMRSMDFKSNSAVAWSNKSDFACANAFNNSIIPEDTFFPSPESSCDVKLVEKSFETDTNLNFQNLSVIGFRILLLKVAGFNLLMTLRLWSS
TCR beta: ATLVCLATGFYPDHVELSWWVNGKEVHSGVSTDPQPLKEQPALNDSRYCLSSRLRVSATFWQNPRNHFRCQVQFYGLSENDEWTQDRAKPVTQIVSAEAWGRADCGFTSESYQQGVLSATILYEILLGKATLYAVLVSALVLMAMVKRKDSRG
B9: modified TCR consisting of β2 and α10 (TCR)
TCR alpha: IPEDTFFPSPESSCDVKLVEKSFETDTNLNFQNLSVIGFRILLLKVAGFNLLMTLRLWSS
TCR beta: ATLVCLATGFYPDHVELSWWVNGKEVHSGVSTDPQPLKEQPALNDSRYCLSSRLRVSATFWQNPRNHFRCQVQFYGLSENDEWTQDRAKPVTQIVSAEAWGRADCGFTSESYQQGVLSATILYEILLGKATLYAVLVSALVLMAMVKRKDSRG
B10: modified TCR consisting of β2 and α1 (TCR)
TCR alpha: YQLRDSKSSDKSVCLFTDFDSQTNVSQSKDSDVYITDKTVLDMRSMDFKSNSAVAWSNKSDFACANAFNNSIIPEDTFFPSPESSCDVKLVEKSFETDTNLNFQNLSVIGFRILLLKVAGFNLLMTLRLWSS
TCR beta: ATLVCLATGFYPDHVELSWWVNGKEVHSGVSTDPQPLKEQPALNDSRYCLSSRLRVSATFWQNPRNHFRCQVQFYGLSENDEWTQDRAKPVTQIVSAEAWGRADCGFTSESYQQGVLSATILYEILLGKATLYAVLVSALVLMAMVKRKDSRG
B11: modified TCR consisting of β7 and α9 (TCR)
TCR alpha: FNNSIIPEDTFFPSPESSCDVKLVEKSFETDTNLNFQNLSVIGFRILLLKVAGFNLLMTLRLWSS
TCR beta: RLRVSATFWQNPRNHFRCQVQFYGLSENDEWTQDRAKPVTQIVSAEAWGRADCGFTSESYQQGVLSATILYEILLGKATLYAVLVSALVLMAMVKRKDSRG
B12: modified TCR consisting of β7 and α10 (TCR)
TCR alpha: IPEDTFFPSPESSCDVKLVEKSFETDTNLNFQNLSVIGFRILLLKVAGFNLLMTLRLWSS
TCR beta: RLRVSATFWQNPRNHFRCQVQFYGLSENDEWTQDRAKPVTQIVSAEAWGRADCGFTSESYQQGVLSATILYEILLGKATLYAVLVSALVLMAMVKRKDSRG
B13: modified TCR consisting of β9 and α9 (TCR)
TCR alpha: FNNSIIPEDTFFPSPESSCDVKLVEKSFETDTNLNFQNLSVIGFRILLLKVAGFNLLMTLRLWSS
TCR beta: FRCQVQFYGLSENDEWTQDRAKPVTQIVSAEAWGRADCGFTSESYQQGVLSATILYEILLGKATLYAVLVSALVLMAMVKRKDSRG
B14: modified TCR consisting of β9 and α8 (TCR)
TCR alpha: CANAFNNSIIPEDTFFPSPESSCDVKLVEKSFETDTNLNFQNLSVIGFRILLLKVAGFNLLMTLRLWSS
TCR beta: FRCQVQFYGLSENDEWTQDRAKPVTQIVSAEAWGRADCGFTSESYQQGVLSATILYEILLGKATLYAVLVSALVLMAMVKRKDSRG
B15: modified TCR consisting of β9 and α10 (TCR)
TCR alpha: IPEDTFFPSPESSCDVKLVEKSFETDTNLNFQNLSVIGFRILLLKVAGFNLLMTLRLWSS
TCR beta: FRCQVQFYGLSENDEWTQDRAKPVTQIVSAEAWGRADCGFTSESYQQGVLSATILYEILLGKATLYAVLVSALVLMAMVKRKDSRG

These binders were tested against CD3 subunits (CD3E, CD3G, CD3D, CD3Z) (human, UniProt P07766 23-207; P09693 23-182; P04234 22-171; P20963 22-164) (assay: cell-based or functional assay).
Chain of CD3 subunits (CD3E, CD3G, CD3D, CD3Z) (P07766 23-207, chain 1 of 4): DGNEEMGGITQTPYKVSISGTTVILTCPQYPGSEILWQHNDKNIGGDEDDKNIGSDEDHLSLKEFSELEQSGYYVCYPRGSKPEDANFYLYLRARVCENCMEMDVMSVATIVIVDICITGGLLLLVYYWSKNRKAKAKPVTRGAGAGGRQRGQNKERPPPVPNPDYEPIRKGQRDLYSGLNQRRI
Chain of CD3 subunits (CD3E, CD3G, CD3D, CD3Z) (P09693 23-182, chain 2 of 4): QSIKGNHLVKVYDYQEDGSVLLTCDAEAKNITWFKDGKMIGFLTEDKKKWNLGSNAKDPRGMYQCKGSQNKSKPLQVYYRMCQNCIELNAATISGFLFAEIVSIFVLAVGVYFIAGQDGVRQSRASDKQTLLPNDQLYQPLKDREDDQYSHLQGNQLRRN
Chain of CD3 subunits (CD3E, CD3G, CD3D, CD3Z) (P04234 22-171, chain 3 of 4): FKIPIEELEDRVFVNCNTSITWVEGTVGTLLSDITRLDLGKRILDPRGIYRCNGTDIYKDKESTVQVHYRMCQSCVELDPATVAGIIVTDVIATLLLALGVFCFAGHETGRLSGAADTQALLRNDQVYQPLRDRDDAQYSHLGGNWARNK
Chain of CD3 subunits (CD3E, CD3G, CD3D, CD3Z) (P20963 22-164, chain 4 of 4): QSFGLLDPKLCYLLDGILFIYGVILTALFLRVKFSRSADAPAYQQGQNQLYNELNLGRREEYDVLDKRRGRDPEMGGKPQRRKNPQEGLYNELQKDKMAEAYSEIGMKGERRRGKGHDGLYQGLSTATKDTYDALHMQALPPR
With B1 the “CD3-recruiting activity (CD3-positive proportion, N=3), CD3-stably expressing 293T cells” value (from here on “CD3-recruiting activity”) was at least 20%. With B2 the “CD3-recruiting activity” value was at least 20%. For B3, the “CD3-recruiting activity” value was at least 20%. B4 was tested, and the “CD3-recruiting activity” value was at least 20%. For B5, the “CD3-recruiting activity” value was at least 20%. B6 was tested, and the “CD3-recruiting activity” value was at least 20%. B7 was tested, and the “CD3-recruiting activity” value was at least 20%. With B8 the “CD3-recruiting activity” value was at least 20%. For B9, the “CD3-recruiting activity” value was at least 20%. With B10 the “CD3-recruiting activity” value was at least 20%. For B11, the “CD3-recruiting activity” value was at least 20%. With B12 the “CD3-recruiting activity” value was at least 20%. For B13, the “CD3-recruiting activity” value was at least 20%. B14 was tested, and the “CD3-recruiting activity” value was at least 20%. For B15, the “CD3-recruiting activity” value was at least 20%.
